Measurements taken from patent US9402913B2, “Cyclosporine A steroid conjugates” (Allergan, Inc., priority 2013, dated 2016).

System: human recombinant carboxylesterases
Assay: In vitro metabolic stability in human recombinant carboxylesterases (rate of metabolite formation, LC-MS/MS)
Assay type: in vitro ADME
Settings: 1 μM test compound, 0.1 mg/mL human recombinant carboxylesterase mixture, pH=6.0, 37° C., triplicate
Protocol: In Vitro Metabolic Stability in Human Recombinant Carboxylesterases
Human recombinant carboxylesterases were purchased from a commercial vendor (BD Gentest™, Bedford, Mass.). All metabolic stability experiments were performed in triplicate in 96-well plate format. The final incubation mixture contained 1 μM test compound and 0.1 mg/mL human recombinant carboxylesterase mixture in a final volume of 0.5 mL 0.1M potassium phosphate buffer (pH=6.0). […] Following a pre-incubation at 37° C., test article was added to initiate the reaction. At designated time points (typically 120 minutes to capture the linear range of metabolite formation), 0.05 mL aliquots were removed from the incubation mixtures using a clean pipet tip and immediately placed in organic solvent to stop any esterase activity.
The samples were analyzed by liquid chromatography with mass spectrometry (LC-MS/MS) detection to determine the metabolite concentrations resulting from the metabolism of the hybrid compounds. Internal standards were used to compensate for variability from sample processing, chromatographic elution, mass spectrometer response and ion suppression by matrix components.

Row | SMILES | Rate of formation Metabolite 2 (Cyclosporine A) [nM/min/mg] | Rate of formation Metabolite 1 (Prednisolone) [nM/min/mg] | Rate of formation Metabolite 1 (Dexamethasone) [nM/min/mg]
1 | C/C=C/C[C@@H](C)C(OC(=O)OCOC(=O)CCC(=O)OCCOCCOCCOC(=O)CCC(=O)OCC(=O)[C@@]1(O)CCC2C3CCC4=CC(=O)C=C[C@]4(C)C3[C@@H](O)C[C@@]21C)C1C(=O)NC(CC)C(=O)N(C)CC(=O)N(C)[C@@H](CC(C)C)C(=O)NC(C(C)C)C(=O)N(C)C(CC(C)C)C(=O)NC(C)C(=O)NC(C)C(=O)N(C)C(CC(C)C)C(=O)N(C)C(CC(C)C)C(=O)N(C)C(C(C)C)C(=O)N1C (relative stereo) [Compound 5] | 35.6 ± 0.63 | 84.4 ± 7.52 | 
2 | C/C=C/C[C@@H](C)[C@@H](OC(=O)OCOC(=O)CCC(=O)OCCOCCOCCOCCOC(=O)CCC(=O)OCC(=O)[C@@]1(O)CCC2C3CCC4=CC(=O)C=C[C@]4(C)C3[C@@H](O)C[C@@]21C)C1C(=O)NC(CC)C(=O)N(C)CC(=O)N(C)[C@@H](CC(C)C)C(=O)NC(C(C)C)C(=O)N(C)C(CC(C)C)C(=O)NC(C)C(=O)NC(C)C(=O)N(C)C(CC(C)C)C(=O)N(C)C(CC(C)C)C(=O)N(C)C(C(C)C)C(=O)N1C (relative stereo) [Compound 6] | 34.4 ± 3.85 |  | 
3 | C/C=C/C[C@@H](C)C(OC(=O)CN(C)C(=O)CNC(=O)OCOC(=O)CCC(=O)OCC(=O)[C@@]1(O)CCC2C3CCC4=CC(=O)C=C[C@]4(C)C3[C@@H](O)C[C@@]21C)C1C(=O)NC(CC)C(=O)N(C)CC(=O)N(C)[C@@H](CC(C)C)C(=O)NC(C(C)C)C(=O)N(C)C(CC(C)C)C(=O)NC(C)C(=O)N[C@@H](C)C(=O)N(C)[C@@H](CC(C)C)C(=O)N(C)C(CC(C)C)C(=O)N(C)C(C(C)C)C(=O)N1C (relative stereo) [Compound 7] | 1.31 ± 0.18 | 4.26 ± 1.31 | 
4 | C/C=C/C[C@@H](C)[C@@H](OC(=O)OCOC(=O)CCC(=O)OCCOCCOCCOCCOC(=O)CCC(=O)OCC(=O)[C@@]1(O)[C@H](C)CC2C3CCC4=CC(=O)C=C[C@]4(C)[C@@]3(F)[C@@H](O)C[C@@]21C)C1C(=O)NC(CC)C(=O)N(C)CC(=O)N(C)[C@@H](CC(C)C)C(=O)NC(C(C)C)C(=O)N(C)C(CC(C)C)C(=O)NC(C)C(=O)NC(C)C(=O)N(C)C(CC(C)C)C(=O)N(C)C(CC(C)C)C(=O)N(C)C(C(C)C)C(=O)N1C (relative stereo) [Compound 20] | 13.9 ± 1.11 |  | 12.0 ± 0.88
5 | C/C=C/C[C@@H](C)[C@@H](OC(=O)OCOC(=O)CCC(=O)OCCOCCOC(=O)CCC(=O)OCC(=O)[C@@]1(O)CCC2C3CCC4=CC(=O)C=C[C@]4(C)C3[C@@H](O)C[C@@]21C)C1C(=O)NC(CC)C(=O)N(C)CC(=O)N(C)[C@@H](CC(C)C)C(=O)NC(C(C)C)C(=O)N(C)C(CC(C)C)C(=O)NC(C)C(=O)NC(C)C(=O)N(C)C(CC(C)C)C(=O)N(C)C(CC(C)C)C(=O)N(C)C(C(C)C)C(=O)N1C (relative stereo) [Compound 21] | 21.6 ± 0.03 |  | 
6 | C/C=C/C[C@@H](C)[C@@H](OC(=O)OCOC(=O)CCC(=O)OCCOCCOCCOCCOCCOC(=O)CCC(=O)OCC(=O)[C@@]1(O)CCC2C3CCC4=CC(=O)C=C[C@]4(C)C3[C@@H](O)C[C@@]21C)C1C(=O)NC(CC)C(=O)N(C)CC(=O)N(C)[C@@H](CC(C)C)C(=O)NC(C(C)C)C(=O)N(C)C(CC(C)C)C(=O)NC(C)C(=O)NC(C)C(=O)N(C)C(CC(C)C)C(=O)N(C)C(CC(C)C)C(=O)N(C)C(C(C)C)C(=O)N1C (relative stereo) [Compound 22] | 46.5 ± 3.16 | 38.4 ± 3.32 | 
7 | C/C=C/C[C@@H](C)[C@@H](OC(=O)OCOC(=O)CCC(=O)OCCOCCOCCOC(=O)CCC(=O)OCC(=O)[C@@]1(O)[C@H](C)CC2C3CCC4=CC(=O)C=C[C@]4(C)[C@@]3(F)[C@@H](O)C[C@@]21C)C1C(=O)NC(CC)C(=O)N(C)CC(=O)N(C)[C@@H](CC(C)C)C(=O)NC(C(C)C)C(=O)N(C)C(CC(C)C)C(=O)NC(C)C(=O)NC(C)C(=O)N(C)C(CC(C)C)C(=O)N(C)C(CC(C)C)C(=O)N(C)C(C(C)C)C(=O)N1C (relative stereo) [Compound 32] | 13.4 ± 1.31 |  | 20.4 ± 3.18
